Test results as given in patent publication US20060104978A1, “Methods and compositions for PDGF-C activation and inhibition” (LUDWIG INSTITUTE FOR CANCER RESEARCH, priority 2003, published 2006).

How the values were obtained:
[1] = tested on: tPA; assay: Cotransfection assay in COS-1 cells: PDGF-CC forms and mutants coexpressed with tPA; format: cell-based, human; conditions: over-expression of free CUB domain (CUBc-myc) with full-length PDGF-C and tPA in COS-1 cells
Source text: The structural requirements for recognition of full-length PDGF-CC as a substrate for tPA were mapped by analysis of several mutated forms of PDGF-CC using the co-transfection assay. The mutants of PDGF-CC included a chimeric form of PDGF-C carrying the CUB domain from PDGF-D and the hinge region and growth factor domain of PDGF-C (mutant PDCUBPC), and several truncation mutants lacking the CUB domain and increasing parts of the hinge region (schematically illustratrated in FIG. 6A). All mutants were properly expressed in transfected COS-1 cells, formed disulfide-linked dimers (data not shown), and were efficiently secreted, except truncation mutant Δ190 that was expressed at a lower level in the conditioned medium (FIG. 6B).
A conserved site of four amino acids containing three basic amino-acid residues (amino-acid residues -R-K-S-R-) was previously identified as a potential site for proteolytic activation of latent PDGF-CC (Li et al, 2000). […]
To test the endogenous expression of PDGF-CC, subconfluent AG1523 cells and primary fibroblast cultures were cultured in serum-free DMEM overnight. […] In the case of the primary cultures, total protein concentration was measured and normalized (Bradford, 1976). […] PDGF-C and PDGF-D were detected by immunoblotting using affinity-purified polyclonal rabbit antibodies against PDGF-C (Li et al, 2000) and PDGF-D (Bergsten et al, 2001), respectively. […]

[2] = tested on: tPA; assay: Ni-NTA pull-down of purified tPA by His6-tagged recombinant proteins; format: binding, human; conditions: Ni-NTA beads coated with His6-tagged protein, 1 μg purified tPA, 2 hours room temperature, eluted with imidazole
Method: The possibility of a direct protein-protein interaction between tPA and latent PDGF-CC was explored by developing a pull-down assay. Ni-NTA beads were allowed to bind recombinant His6-tagged latent PDGF-CC or PDGF-DD, and purified tPA was added and incubated. Following extensive washings, bound proteins were subsequently eluted with an imidazole-containing buffer, and the eluates were analyzed by immunoblotting using specific antibodies.
To determine a direct protein-protein interaction between tPA and PDGF-CC, His6-tagged recombinant protein species were bound to Ni-NTA-agarose (Qiagen) and then incubated with 1 μg of purified tPA for 2 hours at room temperature. Uncoated and PDGF-DD coated Ni-NTA beads were used as controls. The beads were washed thoroughly, and His6-tagged proteins were specifically eluted with 400 mM imidazole. Eluted proteins were analyzed by SDS-PAGE under reducing conditions and immunoblotted with antibodies against human tPA (see above). The membranes were subsequently stripped and reprobed with specific antibodies.

[3] = cornea pocket model; cited from earlier work
[4] = tested on: tPA-deficient fibroblasts; assay: WST-1 growth assay of primary fibroblasts in serum-free medium; format: cell-based, mouse; conditions: 50 ng/ml added to serum-free culture medium, 24 hours
Method: It was observed that primary fibroblasts derived from tPA-deficient mice grew more slowly in culture than fibroblasts derived from wild-type animals, raising the possibility that activation of latent PDGF-CC by tPA generated autocrine and paracrine growth stimulatory loops for primary fibroblasts in culture. To analyze this effect, isolated wild-type and tPA-deficient fibroblasts were serum-starved overnight, and the growth of the cells during the next 24 hours was monitored using an enzyme-based viability assay (see Example 8, Materials and Methods).
(§1) To monitor cell growth, both the cell proliferation reagent WST-1 (Roche) and BrdU (Sigma) were used. A total of 0.4×10^4 (WST-1) or 1×10^4 (BrdU) wild-type and tPA-deficient fibroblasts were seeded in triplicate-hexaplicate, and after attachment they were serum-starved overnight. Serum-starved cells were counted (WST-1 seeding control) and alternatively incubated for 24 hours in serum-free medium supplemented with 1 mg/ml BSA, and 50 μM BrdU in the BrdU experiment, in the absence or presence of 50 ng/ml activated PDGF-CC or tPA protein (#116, American Diagnostica Inc.). Upon counting, WST-1 reagent was added and measured according to the manufacturer's protocol using an ELISA reader. […] Quantification of the BrdU-positive cells was performed by counting all cells along the vertical and horizontal diameters of all wells.

[5] = target: T1, PDGFR-α (Mus musculus, UniProt P26618); assay: PDGFR-α tyrosine phosphorylation in primary fibroblasts; format: cell-based; conditions: 100 ng/ml activated PDGF-CC protein
T1 construct: endogenous in cells; host or cells: primary mouse kidney and lung fibroblasts
T1 sequence (P26618 25-1089): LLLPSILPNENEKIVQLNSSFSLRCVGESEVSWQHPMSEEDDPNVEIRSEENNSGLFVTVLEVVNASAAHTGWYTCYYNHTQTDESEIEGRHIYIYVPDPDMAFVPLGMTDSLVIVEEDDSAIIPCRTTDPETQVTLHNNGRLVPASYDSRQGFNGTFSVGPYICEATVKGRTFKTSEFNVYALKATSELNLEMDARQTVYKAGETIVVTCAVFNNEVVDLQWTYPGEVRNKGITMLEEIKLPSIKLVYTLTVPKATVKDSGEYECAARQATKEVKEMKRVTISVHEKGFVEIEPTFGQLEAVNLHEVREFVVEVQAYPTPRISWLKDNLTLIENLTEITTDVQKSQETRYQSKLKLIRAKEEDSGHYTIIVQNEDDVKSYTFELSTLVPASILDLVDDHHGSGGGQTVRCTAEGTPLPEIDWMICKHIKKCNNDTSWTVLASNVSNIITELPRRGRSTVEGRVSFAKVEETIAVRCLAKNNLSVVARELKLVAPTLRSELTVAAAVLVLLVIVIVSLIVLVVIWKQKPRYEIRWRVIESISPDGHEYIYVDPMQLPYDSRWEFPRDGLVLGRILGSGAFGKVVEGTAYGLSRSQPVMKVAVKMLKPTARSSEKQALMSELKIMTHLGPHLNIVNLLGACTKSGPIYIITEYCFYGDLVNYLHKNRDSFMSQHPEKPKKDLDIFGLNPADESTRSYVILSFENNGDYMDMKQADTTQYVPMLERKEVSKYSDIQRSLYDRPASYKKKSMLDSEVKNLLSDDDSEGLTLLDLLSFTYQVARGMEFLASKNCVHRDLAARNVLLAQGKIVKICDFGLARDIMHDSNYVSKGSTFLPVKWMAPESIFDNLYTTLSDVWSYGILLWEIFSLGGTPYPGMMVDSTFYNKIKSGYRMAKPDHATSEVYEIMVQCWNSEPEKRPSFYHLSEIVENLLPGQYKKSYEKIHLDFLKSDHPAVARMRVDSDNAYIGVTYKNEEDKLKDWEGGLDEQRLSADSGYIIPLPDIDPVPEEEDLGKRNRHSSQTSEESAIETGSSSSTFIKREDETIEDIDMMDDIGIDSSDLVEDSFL
Method: It is known that constitutive activation of PDGFRs by PDGFs leads to receptor desensitization (Heldin and Westermark, 1999), and therefore it was investigated whether the differences observed in growth between the wild-type and tPA-deficient fibroblasts upon PDGF-CC treatment were due to differential activation of PDGFR-α. Recombinant PDGF-CC protein was applied onto the primary fibroblasts and receptor activation was measured as induction of PDGFR-α tyrosine phosphorylation (FIG. 7D, upper panel).
To monitor growth factor-induced tyrosine phosphorylation of PDGFR-α, serum-starved PAE cells stably expressing human PDGFR-α were incubated for 120 min on ice with conditioned medium from COS-1 cells transfected with full-length PDGF-C in the absence or presence of tPA. Alternatively, primary wild-type and tPA-deficient fibroblasts were stimulated with 100 ng/ml activated PDGF-CC protein. The cells were lysed as described previously (Li et al, 2000) and PDGFR-α was immunoprecipitated using a specific antiserum (Eriksson et al, 1992). Precipitated proteins were separated by SDS-PAGE under reducing conditions. Tyrosinephosphorylated receptors were detected by immunoblotting using an antiphosphotyrosine antibody (PY99, Santa Cruz). The membranes were stripped and reprobed using a polyclonal antibody against the C-terminal of the PDGFRs (CED) to detect receptor expression levels.

[6] = tested on: wild-type and tPA-deficient fibroblasts; assay: BrdU incorporation in primary fibroblasts; format: cell-based, mouse; conditions: 50 ng/ml, 24 hours BrdU labeling
Method: Cell nuclei were visualized with 4′,6-diamidine-2′-phenylindole dihydrochloride (DAPI), and BrdU-labeled cells were determined by immunofluorescence using antibodies to BrdU (FIG. 7B).
as §1, with “reader. In the BrdU experiment, the cells were fixed in 4% paraformaldehyde in PBS for 30 min at room temperature and the DNA was denatured in 2M HCl for 20 min at room temperature and then blocked in 0.5% BSA, 0.5% Tween, and 10% goat serum in PBS.” for “reader.”

Chain of tPA (P00750 36-562): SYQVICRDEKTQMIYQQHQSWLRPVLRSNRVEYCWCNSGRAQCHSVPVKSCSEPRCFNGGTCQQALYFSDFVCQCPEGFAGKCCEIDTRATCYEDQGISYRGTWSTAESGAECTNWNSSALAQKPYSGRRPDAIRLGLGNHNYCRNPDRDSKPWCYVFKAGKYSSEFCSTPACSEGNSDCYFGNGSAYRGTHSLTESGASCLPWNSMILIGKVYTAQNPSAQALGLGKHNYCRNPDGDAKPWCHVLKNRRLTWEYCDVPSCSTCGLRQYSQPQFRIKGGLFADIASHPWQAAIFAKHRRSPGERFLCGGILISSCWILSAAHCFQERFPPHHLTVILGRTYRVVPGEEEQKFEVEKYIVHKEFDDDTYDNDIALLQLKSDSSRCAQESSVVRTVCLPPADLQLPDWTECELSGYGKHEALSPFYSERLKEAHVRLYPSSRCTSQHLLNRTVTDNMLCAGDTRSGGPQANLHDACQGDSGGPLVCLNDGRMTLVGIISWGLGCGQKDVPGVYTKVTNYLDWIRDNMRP

B1: CUB domain: free CUB domain of PDGF-C; recombinant His6-tagged (residues 23-163) or c-myc-tagged (residues 1 to 165) (protein)
chain: ESNLSSKFQFSSNKEQNGVQDPQHERIITVSTNGSIHSPRFPHTYPRNTVLVWRLVAVEENVWIQLTFDERFGLEDPEDDICKYDFVEVEEPSDGTILGRWCGSGTVPGKQISKGNQIRIRFVSDEYFPSEPGFCIHYNIVHHHHHH
competition for tPA-mediated processing of latent PDGF-CC [1]: efficiently competed for the interaction and processing of latent PDGF-CC by tPA | binding of tPA in pull-down [2]: both domains were able to interact with tPA

B2: activated PDGF-CC: activated PDGF-CC protein, growth factor without CUB domains (protein)
chain: GRKSRVVDLNLLTEEVRLYSCTPRNFSVSIREELKRTDTIFWPGCLLVKRCGGNCACCLHNCNECQCVPSKVTKKYHEVLQLRPKTGVRGLHKSLTDVALEHHEECDCVCRGSTGG
neoangiogenesis [3]: strong inducer of neoangiogenesis | rescue of growth of tPA-deficient fibroblasts [4]: allowed the cells to grow similar to the wild-type fibroblasts | induction of PDGFR-α tyrosine phosphorylation, tPA-deficient versus wild-type fibroblasts [5]: more pronounced in the tPA-deficient cells as compared to wild type | BrdU incorporation in tPA-deficient cells ([6]; serum-starved tPA-deficient fibroblasts): strongly stimulated BrdU incorporation in the tPA-deficient cells | BrdU incorporation in wild-type cells ([6]; serum-starved wild-type fibroblasts): had less effect on wild-type cells
